# Assay results published in publication PMC4244111, “Structure of Putrescine Aminotransferase from Escherichia coli Provides Insights into the Substrate Specificity among Class III Aminotransferases” (PLoS ONE, 2014).
# B1: YgjG putrescine aminotransferase from Escherichia coli (enzyme, UniProt P42588 1-459, looked up)
# chain: MNRLPSSASALACSAHALNLIEKRTLDHEEMKALNREVIEYFKEHVNPGFLEYRKSVTAGGDYGAVEWQAGSLNTLVDTQGQEFIDCLGGFGIFNVGHRNPVVVSAVQNQLAKQPLHSQELLDPLRAMLAKTLAALTPGKLKYSFFCNSGTESVEAALKLAKAYQSPRGKFTFIATSGAFHGKSLGALSATAKSTFRKPFMPLLPGFRHVPFGNIEAMRTALNECKKTGDDVAAVILEPIQGEGGVILPPPGYLTAVRKLCDEFGALMILDEVQTGMGRTGKMFACEHENVQPDILCLAKALGGGVMPIGATIATEEVFSVLFDNPFLHTTTFGGNPLACAAALATINVLLEQNLPAQAEQKGDMLLDGFRQLAREYPDLVQEARGKGMLMAIEFVDNEIGYNFASEMFRQRVLVAGTLNNAKTIRIEPPLTLTIEQCELVIKAARKALAAMRVSVEEA
# modifications: PLP covalently linked to Lys300 via a Schiff base linkage (free enzyme)
# notes: YgjG putrescine aminotransferase (EC 2.6.1.82), Escherichia coli; The seven N-terminal and one C-terminal residues and the His tag are not visible in the electron density; also called PATase; source: E. coli B834(DE3), purified (Ni-NTA, ion-exchange chromatography, size-exclusion chromatography); not shown: His6, C-terminal, kept
# Target: the molecule itself
# Experiment: crystal structure; crystals by hanging-drop vapour diffusion at 22°C (15% PEG 3350, 0.2 M sodium formate, 0.1 M HEPES pH 7.5); free enzyme at 2.3 Å and putrescine-soaked at 2.1 Å; four molecules in the asymmetric unit; dimer interface analysed with PISA
protein,measurement,value
B1,stoichiometry N,2
